As a reminder, the Km is the substrate concentration at which the rate is half of its maximum. As usually defined, the kcat is the maximal rate divided by the concentration of active sites. As a reminder, the kcat/Km is the second-order rate constant that governs catalysis at low substrate concentration.

For this series, the system named is CCn1c(=NN=c2sc3cc(S(=O)(=O)O)ccc3n2CC)sc2cc(S(=O)(=O)O)ccc21. Description: purified protein. As to conditions: 40 μM H2O2, 100 nM enzyme, 50 mM phosphate-citrate pH 5.0, room temperature.
Consider “KpDyP (B-type Klebsiella pneumoniae dye-decolorizing peroxidase) (Klebsiella pneumoniae; W18F)”, for which the Km was found to be 54 ± 8 µM, the kcat is 4.7 s⁻¹ and the specificity constant (kcat/Km) was 86000 M⁻¹ s⁻¹.
On the same counts, the results for “KpDyP (B-type Klebsiella pneumoniae dye-decolorizing peroxidase) (Klebsiella pneumoniae; W18F/Y92F)” are 84 ± 8 µM, 6.5 s⁻¹ and 77000 M⁻¹ s⁻¹.
On the same counts, the results for “KpDyP (B-type Klebsiella pneumoniae dye-decolorizing peroxidase) (Klebsiella pneumoniae; Y237F)” are 36 ± 7 µM, 4.6 s⁻¹ and 125000 M⁻¹ s⁻¹.
On the same counts, the results for “KpDyP (B-type Klebsiella pneumoniae dye-decolorizing peroxidase) (Klebsiella pneumoniae; Y247F)” are 270 ± 16 µM, 8.7 s⁻¹ and 33000 M⁻¹ s⁻¹.
Regarding “KpDyP (B-type Klebsiella pneumoniae dye-decolorizing peroxidase) (Klebsiella pneumoniae; Y247F/Y92F)”, the Km is 345 ± 73 µM, the kcat came out at 12.8 s⁻¹ and the kcat/Km was 37000 M⁻¹ s⁻¹.

The values are drawn from publication PMC8154254, “On the Track of Long-Range Electron Transfer in B-Type Dye-Decolorizing Peroxidases: Identification of a Tyrosyl Radical by Computational Prediction and Electron Paramagnetic Resonance Spectroscopy” (Biochemistry, 2021).
